This series has as its target FLAG-WRN (wild type) (UniProt Q14191 1-1432). Briefly: EMSA; 2 mM ATPgS, 5 mM MgCl2; affinity similar to the K577M/E84A mutant; Kd is only in Supp Fig 1e, value not in material; 35 mM Tris-HCl pH 7.5, 20 mM KCl, 5 mM MgCl2, 0.1 mg/ml BSA, 2 mM DTT, 5% glycerol, 2 mM ATPgS, 2 nM DNA, 15 min at RT; 5% 1x TBE native PAGE at 4 C. The settings on record: protein: recombinant; tags: N-terminal FLAG (6xHis removed with TEV); label: 5' 32P on oligo B (as described for the CF preparation); four-strand regressed fork: AB partial duplex annealed to CD partial duplex. For orientation: Mobility shift assays separate free from complexed probe on a gel.

Chain of FLAG-WRN (wild type) (Q14191 whole entry): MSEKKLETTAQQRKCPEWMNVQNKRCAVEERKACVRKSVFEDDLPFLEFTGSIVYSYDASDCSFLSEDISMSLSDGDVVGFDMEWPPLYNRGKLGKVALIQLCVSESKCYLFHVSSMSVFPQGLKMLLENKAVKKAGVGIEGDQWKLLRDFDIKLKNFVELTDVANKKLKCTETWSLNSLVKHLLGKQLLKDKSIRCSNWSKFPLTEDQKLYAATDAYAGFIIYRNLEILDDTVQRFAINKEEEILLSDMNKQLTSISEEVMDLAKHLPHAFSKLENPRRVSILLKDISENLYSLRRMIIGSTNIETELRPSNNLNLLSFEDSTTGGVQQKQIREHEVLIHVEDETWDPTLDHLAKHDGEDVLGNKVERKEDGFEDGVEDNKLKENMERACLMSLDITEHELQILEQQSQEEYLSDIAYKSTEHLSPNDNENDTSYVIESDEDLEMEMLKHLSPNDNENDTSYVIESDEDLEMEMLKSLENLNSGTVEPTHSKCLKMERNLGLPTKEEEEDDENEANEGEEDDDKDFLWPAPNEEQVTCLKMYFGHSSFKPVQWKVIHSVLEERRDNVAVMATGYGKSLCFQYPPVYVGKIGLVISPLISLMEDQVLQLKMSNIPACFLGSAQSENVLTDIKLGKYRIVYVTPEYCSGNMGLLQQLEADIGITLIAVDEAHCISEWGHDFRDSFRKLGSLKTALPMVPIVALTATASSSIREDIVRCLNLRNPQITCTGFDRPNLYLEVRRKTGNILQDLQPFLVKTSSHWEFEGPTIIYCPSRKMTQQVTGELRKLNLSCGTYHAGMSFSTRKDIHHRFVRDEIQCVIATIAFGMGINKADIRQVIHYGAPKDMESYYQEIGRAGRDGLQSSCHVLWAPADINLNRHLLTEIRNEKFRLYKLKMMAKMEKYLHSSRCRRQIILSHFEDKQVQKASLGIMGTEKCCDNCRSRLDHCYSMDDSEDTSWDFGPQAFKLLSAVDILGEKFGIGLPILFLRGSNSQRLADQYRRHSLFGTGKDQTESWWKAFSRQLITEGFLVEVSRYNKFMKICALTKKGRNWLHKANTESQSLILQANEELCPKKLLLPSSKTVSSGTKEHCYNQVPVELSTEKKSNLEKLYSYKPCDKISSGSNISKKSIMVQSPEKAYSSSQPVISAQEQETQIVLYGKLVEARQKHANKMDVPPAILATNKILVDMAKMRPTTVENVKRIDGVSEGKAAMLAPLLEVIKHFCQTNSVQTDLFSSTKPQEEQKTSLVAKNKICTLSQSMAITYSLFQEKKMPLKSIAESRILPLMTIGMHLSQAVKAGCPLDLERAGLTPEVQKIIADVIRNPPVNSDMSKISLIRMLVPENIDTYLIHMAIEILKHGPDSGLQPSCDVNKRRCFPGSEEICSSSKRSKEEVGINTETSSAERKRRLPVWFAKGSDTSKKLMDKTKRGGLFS

B1: chicken-foot (CF) reversed fork substrate, oligos A+B+C+D (structured_DNA)
DNA 1: CTTTAGCTGCATATTTACAACATGTTGACCTTCAGTACAATCTGCTCTGATGCCGCATAGTGTCATGCCAGAGCTTTGTAC
DNA 2: CGGGTGTCGGGGCGCATGACACTATGCGGCATCAGAGCAGATTGTACTGAAGGTCAACATGTTGTAAATATGCAGCTAAAG
DNA 3: GTACAAAGCTCTGGCATGATACTATGCGGCATCAGAGCAGATT
DNA 4: TCAGTACAATCTGCTCTGATGCCGCATAGTATCATGCGCCCCGACACCCG
modifications: iMe-isodC at position 38 of oligo A (written as C)
Take B1: the binding result is “binds”.

The values above are taken from paper PMC8590011, “WRN helicase safeguards deprotected replication forks in BRCA2-mutated cancer cells”.
